Reference: publication PMC6422423, “Constitutively active BRS3 is a genuinely orphan GPCR in placental mammals” (PLoS Biology, 2019)
Where a chain is given by its changes, count along the chain named. Names and notes keep the numbering of the source.

How the values were obtained:
mouse BRS3 (mBRS3) = assay: Luciferase reporter, constitutive activity (WT, mutants, truncated; with/without inhibitor); type: cell-based; set-up: key to constitutive luciferase activity: fold over pcDNA-transfected blank control (blank = 1); details: CRE, no ligand
Protocol: (§1) To detect constitutive activity of BRS3, HEK293 cells were seeded in 24-well plates and cotransfected with the CRE/NFAT-RE/SRF-RE/SRE luciferase reporter plasmids (50 ng), the BRS3 from different species, or BRS3 mutants with different doses (10 ng/50 ng/150 ng); after 24 h, cells were further incubated in serum-free media for another 12 h before luciferase assay. As for peptide supplementation treatment, HEK293 cells were cotransfected with the CRE/NFAT-RE/SRF-RE/SRE luciferase reporter plasmids (50 ng) and various genes (300 ng) of the bombesin receptor family. […] Luciferase activities were determined using luciferase assay kits (Beyotime, Shanghai, China) and normalized to β-galactosidase activity. All experiments were performed at least three times in triplicates. HEK293 cells transfected with pcDNA were used as a blank control in all luciferase experiments, and the fold was calculated compared to blank control.

human BRS3 (hBRS3) = assay: as above; type: cell-based; details: for luciferase, CRE / luciferase, NFAT / luciferase, SRE / luciferase, SRF: Blank = 1; for CRE luciferase reporter activity relative to Blank (Blank = 1) / NFAT luciferase reporter activity relative to Blank (Blank = 1) / SRF luciferase reporter activity relative to Blank (Blank = 1): constitutive
Protocol: as §1

[1] = full-length hBRS3 and truncated N-hBRS3, replicate 1
[2] = full-length hBRS3 and truncated N-hBRS3, replicate 2
[3] = full-length hBRS3 and truncated N-hBRS3, third line, unlabelled, equals mean of the two replicates
[4] = hBRS3 WT and mutant 3, replicate 1
[5] = hBRS3 WT and mutant 3, replicate 2
[6] = hBRS3 WT and mutant 3, third line, unlabelled, equals mean of the two replicates

B1: mBRS3-R370A (protein, UniProt O54798 1-399, looked up, variant R370A)
Bombesin receptor subtype-3: MSQRQSQSPNQTLISITNDTETSSSVVSNDTTHKGWTGDNSPGIEALCAIYITYAGIISVGILGNAILIKVFFKTKSMQTVPNIFITSLAFGDLLLLLTCVPVDATHYLAEGWLFGKVGCKVLSFIRLTSVGVSVFTLTILSADRYKAVVKPLERQPPNAILKTCAKAGGIWIVSMIFALPEAIFSNVYTFQDPNRNVTFESCNSYPISERLLQEIHSLLCFLVFYIIPLSIISVYYSLIARTLYKSTLNIPTEEQSHARKQIESRKRIAKTVLVLVALFALCWLPNHLLYLYHSFTYESYANHSDVPFVIIIFSRVLAFSNSCVNPFALYWLSKTFQQHFKAQLCCLKAEQPEPPLGDIPLNNLTVMGAVPATGSAHVSEISVTLFSGSSAKKGEDKV
- constitutive luciferase activity (mouse BRS3 (mBRS3); mean): 17.8056
- constitutive luciferase activity (mouse BRS3 (mBRS3); replicate 1): 17.9268
- constitutive luciferase activity (mouse BRS3 (mBRS3); replicate 2): 17.6843

B2: mBRS3-P372A (protein, UniProt O54798 1-399, looked up, variant P372A)
Bombesin receptor subtype-3: B1 Bombesin receptor subtype-3 with A370R, P372A
- constitutive luciferase activity (mouse BRS3 (mBRS3); mean): 17.158
- constitutive luciferase activity (mouse BRS3 (mBRS3); replicate 1): 17.4198
- constitutive luciferase activity (mouse BRS3 (mBRS3); replicate 2): 16.8962

B3: human (protein, UniProt P32247 1-399, looked up)
Bombesin receptor subtype-3: MAQRQPHSPNQTLISITNDTESSSSVVSNDNTNKGWSGDNSPGIEALCAIYITYAVIISVGILGNAILIKVFFKTKSMQTVPNIFITSLAFGDLLLLLTCVPVDATHYLAEGWLFGRIGCKVLSFIRLTSVGVSVFTLTILSADRYKAVVKPLERQPSNAILKTCVKAGCVWIVSMIFALPEAIFSNVYTFRDPNKNMTFESCTSYPVSKKLLQEIHSLLCFLVFYIIPLSIISVYYSLIARTLYKSTLNIPTEEQSHARKQIESRKRIARTVLVLVALFALCWLPNHLLYLYHSFTSQTYVDPSAMHFIFTIFSRVLAFSNSCVNPFALYWLSKSFQKHFKAQLFCCKAERPEPPVADTSLTTLAVMGTVPGTGSIQMSEISVTSFTGCSVKQAEDRF
- luciferase, CRE (human BRS3 (hBRS3); value 1 of 3): 4.2545
- luciferase, NFAT (human BRS3 (hBRS3); value 1 of 3): 6.3808
- luciferase, SRE (human BRS3 (hBRS3); value 1 of 3): 1.2780
- luciferase, SRF (human BRS3 (hBRS3); value 1 of 3): 4.0202
- luciferase, CRE (human BRS3 (hBRS3); value 2 of 3): 3.9246
- luciferase, NFAT (human BRS3 (hBRS3); value 2 of 3): 6.2351
- luciferase, SRE (human BRS3 (hBRS3); value 2 of 3): 1.0242
- luciferase, SRF (human BRS3 (hBRS3); value 2 of 3): 3.9201
- luciferase, CRE (human BRS3 (hBRS3); value 3 of 3): 4.0896
- luciferase, NFAT (human BRS3 (hBRS3); value 3 of 3): 6.5264
- luciferase, SRE (human BRS3 (hBRS3); value 3 of 3): 1.5319
- luciferase, SRF (human BRS3 (hBRS3); value 3 of 3): 4.1204

B4: hBRS3 (protein)
chain: B3 Bombesin receptor subtype-3
modifications: left off: V5 (from the vector pcDNA3.1-V5-His), end not stated, state not stated | His tag (from the vector pcDNA3.1-V5-His), end not stated, state not stated
- CRE luciferase reporter activity relative to Blank (Blank = 1) (human BRS3 (hBRS3); [1]): 3.5016
- CRE luciferase reporter activity relative to Blank (Blank = 1) (human BRS3 (hBRS3); [2]): 4.7486
- CRE luciferase reporter activity relative to Blank (Blank = 1) (human BRS3 (hBRS3); [3]): 4.1251
- NFAT luciferase reporter activity relative to Blank (Blank = 1) (human BRS3 (hBRS3); [1]): 5.5943
- NFAT luciferase reporter activity relative to Blank (Blank = 1) (human BRS3 (hBRS3); [2]): 5.6987
- NFAT luciferase reporter activity relative to Blank (Blank = 1) (human BRS3 (hBRS3); [3]): 5.6465
- SRF luciferase reporter activity relative to Blank (Blank = 1) (human BRS3 (hBRS3); [1]): 3.202
- SRF luciferase reporter activity relative to Blank (Blank = 1) (human BRS3 (hBRS3); [2]): 3.9147
- SRF luciferase reporter activity relative to Blank (Blank = 1) (human BRS3 (hBRS3); [3]): 3.5584

B5: hBRS3-WT (protein, UniProt P32247 1-399, looked up)
Bombesin receptor subtype-3: B3 Bombesin receptor subtype-3
- CRE luciferase reporter activity relative to Blank (Blank = 1) (human BRS3 (hBRS3); [4]): 4.2545
- CRE luciferase reporter activity relative to Blank (Blank = 1) (human BRS3 (hBRS3); [5]): 3.9246
- CRE luciferase reporter activity relative to Blank (Blank = 1) (human BRS3 (hBRS3); [6]): 4.0896
- NFAT luciferase reporter activity relative to Blank (Blank = 1) (human BRS3 (hBRS3); [4]): 6.5264
- NFAT luciferase reporter activity relative to Blank (Blank = 1) (human BRS3 (hBRS3); [5]): 6.2351
- NFAT luciferase reporter activity relative to Blank (Blank = 1) (human BRS3 (hBRS3); [6]): 6.3808
- SRF luciferase reporter activity relative to Blank (Blank = 1) (human BRS3 (hBRS3); [4]): 4.1204
- SRF luciferase reporter activity relative to Blank (Blank = 1) (human BRS3 (hBRS3); [5]): 3.9201
- SRF luciferase reporter activity relative to Blank (Blank = 1) (human BRS3 (hBRS3); [6]): 4.0202
